Source: the nanobody polyreactivity screen of Harvey et al. (2022)

Assay: yeast display, Sf9 membrane polyspecificity reagent, FACS + sequencing; frameworks hold sequencing errors
Procedure, shortened: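 A synthetic nanobody library was expressed on Saccharomyces cerevisiae BJ5465 by galactose induction for 36–48 hours. The library was stained for 1 hour at 4 °C with 10% biotinylated, detergent-solubilized Sf9 membrane reagent and enriched with streptavidin microbeads before FACS. Low and high (top ~1%) gates were set on anti-HA fluorescence for expression and streptavidin fluorescence for reagent binding, and each polyreactivity label reflects the gate of origin.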

Sequence	polyreactivity (PSR sort gate)
QVQLVETGGGLVQAGGSLRLSCAASGITFWYYAMGCDRQAPGKERELVAVISRGGSTYYADSVKGRFTISRDNAKNTVYLQMNSLKPEDTAVYYCAARPRWYTYNRQEYDYWGQGTQVTLSS	high polyreactivity
QVQLVETGGGLVQAGGSLRLSCAASGITFYYYAMGWYRQAPGKERELVAAINSGGITNYADSVKGRFTLSRDIAKKTVYLQMNSLKPEDTAVYYCAASSGFRYRYGYWGQGTQVTVSS	high polyreactivity
QVQLVETGGGLVQAGGSLRLSCAASGRIFGPNSKGWYRQAPGKEREFVASIRYSGGSTYYADSVKGRFTISRDYAKNTVYLQMHSLKPEDTAVYYCAARTVTLSYLYYYWGQGTHVTVSS	high polyreactivity
QVQLVETGGGLVQAGGSLRLSCAASGRIFQWYAMGWYRQAPGKERELVAAINNGGSTNYADSVKGRFTISRDNAKNTVYLQMNSLKPEDTAVYYCAAELTFVAQGWFVTYDYWGQGTQVTVSS	high polyreactivity
QVQLVETGGGLVQAGGSLRLSCAASGRIFRGNTMGWYRQAPGKERELVAAISWRGGRTYYADSVKWRFTISRDNAKNTVYLQMISLKPEDTAVYYCNAVYFQTGVYGYGDYDSWGQGTQVTVSS	low polyreactivity
QVQLVETGGGLVQAGGSLRLSCAASGRIFRNNAMGWYRQAPGKERELVAGISSGGSTYYADSVKGRFTMSRDNAKKTVYLQMNNLKPEDTAVYFFAVVGSAYQSRYDYWGQGNQVTVSS	high polyreactivity
QVQLVETGGGLVQAGGSLRLSCAASGRIFVVYDMGWYRQAPGKERELVANITISGGRTYYADSVKGRFTISRDNAKNTVYLQMNSLKPEDTAVYYCAATSGALYYGYEYWGQGTQVTVSS	low polyreactivity
QVQLVETGGGLVQAGGSLRLSCAASGRIFYYKAKGWYRQAPGKERELVASISWDASSTYYADSVKGRFTISRDNAKNTVYLQMNSLKPEDTAVYYCNIKHLYRQYDYWGQGTQVTVSS	low polyreactivity
QVQLVETGGGLVQAGGSLRLSCAASGRIFYYNAMGWYRQAPGKERELVAAITGSGGSTYYADSVKGRFTISRDNEMNTVYLQMNSLKPEDSAVYYCAAVNPYIRGRYDYWGQGTQVTVSS	high polyreactivity
QVQLVETGGGLVQAGGSLRLSCAASGRTFHYNVMGWYRQAPGKERELVAAITNTGGSTYYADSVKGRFTISRDNAKNTVYLQMNSLKPEDTAVYYCAAVETLPFDWYYWRYDYWGQGTQVTVSS	low polyreactivity
QVQLVETGGGLVQAGGSLRLSCAASGRTFNVNVKGRYRQAPGKERELVAAINRRGNTYYADSVKGRFTISRDNAKNTVYLQMNSLKPEDTAVYYCAADYRRYGSYDYWGQGTQVTVSS	low polyreactivity
QVQLVETGGGLVQAGGSLRLSCAASGRTFWTNAMGWYRQPPGKEREFVAAISWRGASTFYADSVKWRFTISRDNAKNTVYLQMNSLIPEDTAVFYCAAQSRTRSFYGKYDSWGQGNQVTVSS	low polyreactivity
QVQLVETGGGLVQAGGSLRLSCAASGRTISVNAMVWYIQAPGKESELVAAISSGGGTNYADSVKGRFTISRDNAKNTVYFQMNSLKPEDTAVYYCAADSRPGKYYEDDYWGQGTQVTVSS	low polyreactivity
QVQLVETGGGLVQAGGSLRLSCAASGSIAFNAMGWYTQAPGKERELVAAITWRVGSTYYADSVKGRFTISRDNAMNTVDLQMHSLKTEDTAVYYCAARRTAGAYYGYNYWGQGTQVTVSS	high polyreactivity
QVQLVETGGGLVQAGGSLRLSCAASGSIFDGYAMGWYRQAPGKERDFVASIRFSTARTYYADSVKGRFTISRDNAKNTVYLQMNSLKPEDTAVYYCNAPQGFVWRYSSWGPYDYWGQGTQVTVSS	high polyreactivity
QVQLVETGGGLVQAGGSLRLSCAASGSIFYRYAMGWYRQAPGKEREMVAAIRTRGGTYYADSVKGRFTISRDNAKNTVYLQMNSLKPEDTAVYYWNAVVPGCTAVDYDYWGQGTQVTVSS	high polyreactivity
QVQLVETGGGLVQAGGSLRLSCAASGSIFYTNAMGWYRQAPGKERELVAVITASGGSTYYADSVKGRFTISRDNAKNTVYLQMNSLKPEDTAVYYCAADPVFNYDYWGQGTQVTVSS	low polyreactivity
QVQLVETGGGLVQAGGSLRLSCAASGSIFYVYAMGWYRQAPRKERELVAAINTSGGSTYADSVKGRFTISRDNAKNTDYLQMNSLKPEDTAVYYCAADGYYEYTWGEYDSWGQGTQVTVSS	low polyreactivity
QVQLVETGGGLVQAGGSLRLSCAASGSTFESYAMGWYRQAPGKERELVASISRCGGTTFYADSVKVRFTISRDNAKNTVYLQMNSLKPEDTEVYYCAAKRRRLGGDYWGQGTQVTVSS	high polyreactivity
QVQLVETGGGLVQAGGSLRLSCAASGSTFGTYAMGWDRQAPGKERELVAAISSGDSTTYADSVKGRFTISRDNAKNTVYLQMNSLKPEDTAVYYCAARTFLMRNGGYNYWGQGTQVTVSS	low polyreactivity
QVQLVETGGGLVQAGGSLRLSCAASGSTFTSNAMGWYRPAPGKERELVAAIDSSDGITYYADSVKGRFTISRDNAKNTVYLQMNSLKPEDTAVYYCAAEDYEAGYDYWGQGTQVTVSS	high polyreactivity
QVQLVETGGGLVQAGGSLRLSCAASGSTMAYYTMGWYRQEPGKEREFVASINWGGTTTYYADSVKGRFTISRDNAKNTVYLQMNSLKPEDTAVYYCAALGLRWGRSGYYYEYYYWGQGTQVTVSS	high polyreactivity

Sequence	polyreactivity (PSR sort gate)
QVQLVETGGGLVQAGGSLRLSCAASGYTFRYYAMGWYRQAPGKERELVAAISRRGGSTSYADSVKGRFTISRDNAKNTVYLQMNSLKPEDTAVYYCAVYLGGVSPTYGYWGQGTQVTVSS	high polyreactivity
QVQLVETGGGLVQAGGSLRLSCADSGRIFRYNAMGWYRHAHGKERELVAAITLSTGSTYYADSVKGRFTISRDNAKNTVYLQMNSLKPEDTAVYYCAARIDGRTYARRVYYWGQGTQVTLSS	high polyreactivity
QVQLVETGGGLVQAGGSLRLSCAGSGHIFPTNARGWYRQSPWKARELVAVISESVGSTYYADSVKGRFTISRDNSKNTVYLQMNSLKPEDTAVYYCAKQSLYPSLDADYDYWGQGTQVNVSS	low polyreactivity
QVQLVETGGGLVQAGGSLRLSCAPSGRTLTYYAMGWYRQAPGKERELVAAIRHSAGSTYYADSVKVRFTISRDNAKNSVYLLMNSLKPEVTAVYYCAKKYYGHRYPSIYDYWGQGTQVTVSS	high polyreactivity
QVQLVETGGGLVQAGGSLRLSCAPSGSIFRYNAMGWYRQAPGKEREFVAAISQSGSRTYYADSVKGRFTISRDNAKNTVYLQMNSLKPEDTAVYYCAKKYYGVKFYWGQGTQVTVSS	low polyreactivity
QVQLVETGGGLVQAGGSLRLSCDASGSTFVRYVMGWYRQAPGKERELVAAISRRGGSTYYADSVKGRFTISRANAKNTVYLQMNSLKPEDNAVYYCAGRGGRYFPYHGTIRYDYWGQCTQVTVSS	high polyreactivity
QVQLVETGGGLVQAGGSLRLSSAASGRTFAYYAMGWYRQAPGKERELVAAISSGGGSTYYADSVKGRFTISRDNAKNTVYLQMNSVKPEDTAVYYCNKGFNYCGWFKKYGYWGQGTQVTVSS	high polyreactivity
QVQLVETGGGLVQEGGSLRISCAASGSLFDVYAMGWYRQAPGKERELVAAISSSGSTYYADSVKGRFTISRDNAKNTVYLQMNSLKTEDTAVYYCAADQADDDDYYYWGQGTQVTVSS	low polyreactivity
QVQLVETGGRLVQAGGSLRLSCAASGITLPKYAMGWYRPAPGKERELVAAISRSSGRTYYADSVKGRFTISRDNAKNTVYLQMNSLKPEDTAVYYCAASHGGYITRYNYWGQGTQVTVSS	high polyreactivity
QVQLVETGRGLVQAGGSLRLSCAASGGTFVVYSMGWYRQAPGTERELVAAITWIGDSTYYADSVKRRFTISRDNAKNTVYVQMNSLNPEDTAVYYCNKAKLYLVGRARFQTNYGLYDFWGQVTQVTVSS	low polyreactivity
QVQLVETRGGLVQAGGSLRFSCAPSGRISLIYDMGWYRQAPAKERELVASITWSGDSTYYADSVKGRFTNSRDNAKNTVYLQMNSLKPVDTAVYYCAAVCWTYEYWEWYDYWGQVTQVTVSS	high polyreactivity
QVQLVETVGGLVQAGGSLRLTCAASGFTIYYNAMGWYRQAPGKERELVASISSNGTSTYYADSVKGRFTISRDNAKNTVYLQMNSLKPEDTAVYYCNVDIFDPRTYDYWGQGTQVTVSS	low polyreactivity
QVQLVETVVGLVQAGGSLRLSCAASGSIFGFYDMGWYRQAPGKERELVAVISVSDGSTYYADSVKGRFTISRDNAKNTVYLQMNSLKAEDTAVYYCAATPRGSYGYYYWGQGTQVTVSS	low polyreactivity
QVQLVGSGGGLVQAGGSLRLSCAASGIIFQLYAMGWYRQAPGKERELVAAITSTGTTNYADSVKGRFTISRDNAKNTVYLQMNCLKPEDTAVYYCNADVGYWWGYYGYDYWGQGTQVTVSS	high polyreactivity
QVQLVGVRGRLVQAGGSLRLSCAASGRTIYAYAMGWNRQAPRKERELVATITSGGSTNYADSVKGRFTISRDNAMNTFYLLMNSLKPEDTAVYYCGAGPRGYKKYDYWGHGTQVTVSS	low polyreactivity
QVQLVHSGGGLVQAGGSLRLSCAASGITIWYYAMGWYRQAPGKERELVAAISWRGGSTYYADSVKGRFTISRDYAKNTVNLQMNSLKPEATAVYYCAAGYSLLYTYEYWGQGTQVTVSS	high polyreactivity
QVQLVKSGGGLVQAGGSLRLSCAASGFIIPEYTMGWYRQAPGKERELVAAISGSGGSTYYADSVKGRFTISRDNAKNTVYLQMNSLKPEDTAVYYCAASYAVSRYLQTYAHAHGYWGQGTQVTVSS	low polyreactivity
QVQLVKSGGGLVQAGGSLRVSCAATGRIYTDNAMGWYRQATGKERELVAGMSSSGGRTYYADSVKGRFTISRDNAKNSVFFQMNSLLTEATAVYYCAAANSRRDGRYYWGQGTQVSVSS	high polyreactivity
QVQLVQSAAGLVHAGGSLRLSCAASGIIFYGYAMVSYRQAPGKERELVAAITSYDGSTYYADSVKGRFTISRDNAKNTVYLQMNSLKPEDTAEYYCAADYSTYEGWYWFDYWGQGSQVTVSS	high polyreactivity
QVQLVQSCGGLVQAGGSLRLSCATSGFTFPLYAMGWYRQAPGKERELVAAISSGSSTYYADSVKGRFTISRDNAKNTVYLQMNSLKPEDTAVYYCAAQKRGSPGYRRDYWGQGTQVTVSS	high polyreactivity
QVQLVQSGGCLVQAGGSLRLSCSASGSIFVHHDMGWYRQAPGKERELVAAISWGGGRTYYADSVKGRFTISRDNAKNTVYLQMNSLKPEDTAVYYCAVDGGEFSSYGYWGQGTQVTVSS	low polyreactivity
